T1: human CD39 on cells (human, UniProt P49961 1-510)
T1 construct: One molecule for all cells that carry human CD39; the cell is named under assay; also called hCD39; cellular CD39
T1 sequence: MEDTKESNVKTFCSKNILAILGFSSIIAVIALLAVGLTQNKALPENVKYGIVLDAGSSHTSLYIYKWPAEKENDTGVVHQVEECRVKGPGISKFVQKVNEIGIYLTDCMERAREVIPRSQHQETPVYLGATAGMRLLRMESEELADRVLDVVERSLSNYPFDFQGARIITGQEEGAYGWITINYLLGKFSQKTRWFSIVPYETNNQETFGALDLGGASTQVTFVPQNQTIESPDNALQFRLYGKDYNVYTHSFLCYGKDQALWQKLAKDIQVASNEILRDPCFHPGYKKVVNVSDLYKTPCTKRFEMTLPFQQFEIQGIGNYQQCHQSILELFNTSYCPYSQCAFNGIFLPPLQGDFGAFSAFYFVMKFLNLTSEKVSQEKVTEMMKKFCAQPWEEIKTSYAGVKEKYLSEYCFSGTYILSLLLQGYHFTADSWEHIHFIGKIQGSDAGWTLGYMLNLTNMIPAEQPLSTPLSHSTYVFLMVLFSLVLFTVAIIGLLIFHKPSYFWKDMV

T2: cynomolgus macaque (Macaca fascicularis) CD39 on cells (cynomolgus macaque (Macaca fascicularis), UniProt P49961 7-510 (human entry))
T2 construct: CHO cells engineered to express cyno CD39, or primary cyno B cells and monocytes; also called cyno CD39; cCD39
T2 chain: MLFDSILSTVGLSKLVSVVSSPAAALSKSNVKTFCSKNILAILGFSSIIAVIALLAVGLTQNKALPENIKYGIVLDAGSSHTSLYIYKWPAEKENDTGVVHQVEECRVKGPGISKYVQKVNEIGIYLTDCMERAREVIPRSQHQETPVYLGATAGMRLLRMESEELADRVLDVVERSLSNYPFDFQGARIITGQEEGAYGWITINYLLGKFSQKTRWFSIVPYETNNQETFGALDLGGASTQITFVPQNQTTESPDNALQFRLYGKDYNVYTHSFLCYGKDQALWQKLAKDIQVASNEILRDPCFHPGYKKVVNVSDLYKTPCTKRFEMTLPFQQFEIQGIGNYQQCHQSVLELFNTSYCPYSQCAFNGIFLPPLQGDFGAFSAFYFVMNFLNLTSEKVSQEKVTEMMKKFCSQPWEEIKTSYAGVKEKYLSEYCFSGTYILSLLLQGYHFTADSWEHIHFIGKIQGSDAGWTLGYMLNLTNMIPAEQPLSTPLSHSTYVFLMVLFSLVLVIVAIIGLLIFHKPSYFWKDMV

T3: rhCD39-ECD-His (R&D Systems) (human, UniProt P49961 38-478)
T3 construct: Bought protein; that entry runs on through the C-terminal transmembrane and cytoplasmic residues; also called recombinant human CD39 extracellular domain; soluble recombinant human CD39 (ENTDP1) ECD; not shown: His tag
T3 sequence: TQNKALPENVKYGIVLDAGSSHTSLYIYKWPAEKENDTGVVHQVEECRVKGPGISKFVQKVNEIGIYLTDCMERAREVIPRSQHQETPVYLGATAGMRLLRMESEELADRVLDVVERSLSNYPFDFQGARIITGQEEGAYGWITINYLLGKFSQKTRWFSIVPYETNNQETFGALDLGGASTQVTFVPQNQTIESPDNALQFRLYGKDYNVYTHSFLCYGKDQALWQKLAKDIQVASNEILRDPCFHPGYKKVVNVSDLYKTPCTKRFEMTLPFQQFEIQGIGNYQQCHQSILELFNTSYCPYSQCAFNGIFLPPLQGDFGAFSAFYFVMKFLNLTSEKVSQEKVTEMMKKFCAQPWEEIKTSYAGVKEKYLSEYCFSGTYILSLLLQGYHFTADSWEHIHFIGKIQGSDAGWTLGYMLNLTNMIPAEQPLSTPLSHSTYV


Key:
human CD39 on cells = biological target: T1, human CD39 on cells; assay: flow cytometry, 100 nM IgG, hCD39-CHO cells; MFI ratio to parental CHO
Description: (§1) 100 nanomolar IgGs (each antibody is indicated as a unique clone number in the FIG.) were incubated at […] 30 minutes on ice in phosphate buffered saline (PBS) with parental CHO cells or CHO cells engineered to express either human or cynomolgus macaque (Macaca fascicularis) CD39 (CHO CD39 cells). Cells were then washed with ice cold PBS and incubated with a fluorescently labeled goat-anti-human IgG for 20 minutes on ice. Cells were washed and resuspended in ice cold PBS prior to analysis by flow cytrometry.

[1] = biological target: T2, cynomolgus macaque (Macaca …); assay: flow cytometry, 100 nM IgG, cCD39-CHO cells; MFI ratio to parental CHO
Description: as §1

[2] = biological target: T3, rhCD39-ECD-His (R&D Systems); assay: BLI (Octet), IgG on anti-human Fc sensor, rhCD39-ECD-His 10-300 nM, 1:1 fit
Description: The kinetic data was globally fit with a simple 1:1 Langmuir binding model to yield on-rate (kon) and off-rate (koff) values. The equilibrium dissociation constants (KD) were calculated from the kon and koff values.
Binding kinetics were measured using the Octet Red96 system (ForteBio) at 25° C. in running buffer (1× Pall ForteBio Kinetics Buffer diluted into PBS or Tris pH 7.4). […] After a short baseline step in running buffer, the sensors were exposed to varying concentrations (10-300 nM) of rhCD39-ECD-His (R&D Systems) for the association step. Dissociation of the complex was monitored upon exposure of the sensors to running buffer once again. Data was processed using ForteBio Octet software with baseline subtraction, global fit and 1:1 binding model to obtain association and dissociation rates. KD was calculated from the ratio of kd to kₐ.

Binder | Cell Binding (FOB) (human CD39 on cells) | Cell Binding (FOB) [1] | Kd [2] | koff [2] | kon [2]
27577 (antibody, V domains shown) VH: QVQLVQSGAEVKKPGSSVKVSCKASGGAFSSYAIGWVRQAPGQGLEWMGGIIPTFGTANYAQKFQGRVTITADESTSTAYMELSSLRSEDTAVYYCARDGGGYQHHYFDLWGRGTLVTVSS VL: EIVMTQSPATLSVSPGERATLSCRASQSVGSNLAWYQQKPGQAPRLLIYGASTRATGIPARFSGSGSGTEFTLTISSLQSEDFAVYYCQQLTKWPLTFGGGTKVEIKR | 390 FOB | 339 FOB | 409 nM | 0.365 s⁻¹ | 893000 M⁻¹ s⁻¹
27588 (antibody, V domains shown) VH: QVQLVQSGAEVKKPGSSVKVSCKASGGTFSNYAISWVRQAPGQGLEWMGGIIPIFGTANYAQKFQGRVTITADESTSTAYMELSSLRSEDTAVYYCARAKRGYDSYGGVYFDYWGQGTLVTVSS VL: not shown | 10 FOB | 14 FOB | 54.9 nM | 0.00644 s⁻¹ | 117000 M⁻¹ s⁻¹
29852 (antibody, V domains shown) VH: QVQLVQSGAEVKKPGSSVKVSCKASGGTFSAMAISWVRQAPGQGLEWMGGILPIAGTANYAQKFQGRVTITADESTSTAYMELSSLRSEDTAVYYCARGGAKYASTYGMDVWGQGTTVTVSS VL: not shown | 337 FOB | 1420 FOB | 0.266 nM | 0.000134 s⁻¹ | 503000 M⁻¹ s⁻¹
31432 (antibody, V domains shown) VH: QVQLVQSGAEVKKPGSSVKVSCKASGGTFSHTAISWVRQAPGQGLEWMGGILPIGGTANYAQKFQGRVTITADESTSTAYMELSSLRSEDTAVYYCARGGAKYASQLGMDVWGQGTTVTVSS VL: not shown | 1170 FOB | 5700 FOB | 1.07 nM | 0.000286 s⁻¹ | 268000 M⁻¹ s⁻¹
29857 (antibody, V domains shown) VH: QVQLVQSGAEVKKPGSSVKVSCKASGGTFSWLAISWVRQAPGQGLEWMGGIIPRGGTANYAQKFQGRVTITADESTSTAYMELSSLRSEDTAVYYCARGGAKYASTYGMDVWGQGTTVTVSS VL: not shown | 224 FOB | 1140 FOB | 0.76 nM | 0.000229 s⁻¹ | 302000 M⁻¹ s⁻¹
29871 (antibody, V domains shown) VH: QVQLVQSGAEVKKPGASVKVSCKASGYTFQSYYMHWVRQAPGQGLEWMGKINPSGGSTWYAQKFQGRVTMTRDTSTSTVYMELSSLRSEDTAVYYCARGKREGGTEYLRHWGQGTLVTVSS VL: EIVLTQSPGTLSLSPGERATLSCRASQSVSSSYLAWYQQKPGQAPRLLIYGASSRATGIPDRFSGSGSGTDFTLTISRLEPEDFAVYYCQQYHSYITFGGGTKVEIK | 451 FOB | 3350 FOB | 244 nM | 0.0666 s⁻¹ | 273000 M⁻¹ s⁻¹

The remaining binders from weak to strong by Kd [2], led by results:

Cell Binding (FOB) (human CD39 on cells) | Cell Binding (FOB) [1] | Kd [2] | koff [2] | kon [2] | Binder
799 FOB | 908 FOB | 335 nM | 0.0914 s⁻¹ | 273000 M⁻¹ s⁻¹ | 27597 (antibody, V domains shown) VH: QVQLVQSGAEVKKPGSSVKVSCKASGGTFSSYAISWVRQAPGQGLEWMGSIIPIFGTANYAQKFQGRVTITADESTSTAYMELSSLRSEDTAVYYCAREGRGYDSSRYYKFWFDPWGQGTLVTVSS VL: EIVLTQSPATLSLSPGERATLSCRASQSVSSYLAWYQQKPGQAPRLLIYDASNRATGIPARFSGSGSGTDFTLTISSLEPEDFAVYYCQQFVLWPRTFGGGTKVEIKR
311 FOB | 531 FOB | 191 nM | 0.0385 s⁻¹ | 202000 M⁻¹ s⁻¹ | 27589 (antibody, V domains shown) VH: QVQLVQSGAEVKKPGSSVKVSCKASGGTFSSYAISWVRQAPGQGLEWMGGIIPIFGTANYAQKFQGRVTITADESTSTAYMELSSLRSEDTAVYYCARDSGYHRHYSDYWGQGTLVTVSS VL: DIQMTQSPSTLSASVGDRVTITCRASQSISSWLAWYQQKPGKAPKLLIYKASSLESGVPSRFSGSGSGTEFTLTISSLQPDDFATYYCQQYGLFPITFGGGTKVEIKR
33 FOB | 44 FOB | 131 nM | 0.023 s⁻¹ | 176000 M⁻¹ s⁻¹ | 27590 (antibody, V domains shown) VH: QVQLVQSGAEVKKPGSSVKVSCKASGGTFSNYAISWVRQAPGQGLEWMGGIIPIFGTANYAQKFQGRVTITADESTSTAYMELSSLRSEDTAVYYCARGPTVTATTSIGTHNWFDPWGQGTLVTVSS VL: EIVLTQSPATLSLSPGERATLSCRASQSVSSYLAWYQQKPGQAPRLLIYDASNRATGIPARFSGSGSGTDFTLTISSLEPEDFAVYYCQQRNFYPPTFGGGTKVEIK
252 FOB | 257 FOB | 31.1 nM | 0.0533 s⁻¹ | 1.72e+06 M⁻¹ s⁻¹ | 27596 (antibody, V domains shown) VH: QVQLVQSGAEVKKPGSSVKVSCKASGGTFSSYAISWVRQAPGQGLEWMGGIIPIFGTANYAQKFQGRVTITADESTSTAYMELSSLRSEDTAVYYCARDPLGIRKHWFDPWGQGTLVTVSS VL: EIVMTQSPATLSLSPGERATLSCRASQSVSSYLAWYQQKPGQAPRLLIYDASNRATGIPARFSGSGSGTDFTLTISSLEPEDFAVYYCQQHTVWPITFGGGTKVEIKR
1080 FOB | 3050 FOB | 18.8 nM | 0.00526 s⁻¹ | 281000 M⁻¹ s⁻¹ | 31421 (antibody, V domains shown) VH: QVQLVQSGAEVKKPGASVKVSCKASGYTFFSYYMYWVRQAPGQGLEWMGVINPLGGGTSYAQKFQGRVTMTRDTSTSTVYMELSSLRSEDTAVYYCARGKREGGTEYLRHWGQGTLVTVSS VL: EIVLTQSPGTLSLSPGERATLSCKASESVSSSYLAWYQQKPGQAPRLLIYYASSRATGIPDRFSGSGSGTDFTLTISRLEPEDFAVYYCQQYHRRITFGGGTKVEIK
1020 FOB | 1340 FOB | 9.05 nM | 0.00815 s⁻¹ | 901000 M⁻¹ s⁻¹ | 28347 (antibody, V domains shown) VH: QVQLVQSGAEVKKPGSSVKVSCKASGGTFSSLAISWVRQAPGQGLEWMGGIIPIFGTANYAQKFQGRVTITADESTNTAYMELSSLRSEDTAVYYCARGGAKYASTYGMDVWGQGTTVTVSS VL: not shown
129 FOB | 398 FOB | 1.23 nM | 0.000385 s⁻¹ | 313000 M⁻¹ s⁻¹ | 29851 (antibody, V domains shown) VH: QVQLVQSGAEVKKPGSSVKVSCKASGGTFASLAISWVRQAPGQGLEWMGGILPIFGEANYAQKFQGRVTITADESTSTAYMELSSLRSEDTAVYYCARGGAKYASTYGMDVWGQGTTVTVSS VL: not shown
